# Target: the molecule itself
# Assay: size-exclusion chromatography of anti-FLAG affinity purified protein (self-association into a homodimer)
# Procedure: Batch purification was performed using an anti-FLAG M2 affinity resin (Sigma-Aldrich, St. Louis, Mo., Cat. No. A2220), following the manufacturer's instructions. ADA2 were eluted from the resin using FLAG™ peptide. Purity of the eluted protein was assessed using SDS-PAGE and size-exclusion chromatography (SEC).
protein,measurement,value
"WT recombinant human ADA2-FLAG polypeptide (enzyme, The only entry describes two identical subunits associating into the homodimer seen by SEC; Expressed in CHO-S cells and purified on anti-FLAG M2 resin; also called rHuADA2; rHuADA2-FLAG) IDETRAHLLLKEKMMRLGGRLVLNTKEELANERLMTLKIAEMKEAMRTLIFPPSMHFFQAKHLIERSQVFNILRMMPKGAALHLHDIGIVTMDWLVRNVTYRPHCHICFTPRGIMQFRFAHPTPRPSEKCSKWILLEDYRKRVQNVTEFDDSLLRNFTLVTQHPEVIYTNQNVVWSKFETIFFTISGLIHYAPVFRDYVFRSMQEFYEDNVLYMEIRARLLPVYELSGEHHDEEWSVKTYQEVAQKFVETHPEFIGIKIIYSDHRSKDVAVIAESIRMAMGLRIKFPTVVAGFDLVGHEDTGHSLHDYKEALMIPAKDGVKLPYFFHAGETDWQGTSIDRNILDALMLNTTRIGHGFALSKHPAVRTYSWKKDIPIEVCPISNQVLKLVSDLRNHPVATLMATGHPMVISSDDPAMFGAKGLSYDFYEVFMGIGGMKADLRTLKQLAMNSIKYSTLLESEKNTFMEIWKKRWDKFIADVATKDYKDDDDK",binding result,binds

# Source: patent US20230203470A1 (published 2023)
